In patent US7262274:

Target: human RANK, full length (expressed in or on cells) (human) (UniProt Q9Y6Q6)
Test: cell-based or functional assay

Sequence of UniProt Q9Y6Q6 (Q9Y6Q6 30-616 limits assumed): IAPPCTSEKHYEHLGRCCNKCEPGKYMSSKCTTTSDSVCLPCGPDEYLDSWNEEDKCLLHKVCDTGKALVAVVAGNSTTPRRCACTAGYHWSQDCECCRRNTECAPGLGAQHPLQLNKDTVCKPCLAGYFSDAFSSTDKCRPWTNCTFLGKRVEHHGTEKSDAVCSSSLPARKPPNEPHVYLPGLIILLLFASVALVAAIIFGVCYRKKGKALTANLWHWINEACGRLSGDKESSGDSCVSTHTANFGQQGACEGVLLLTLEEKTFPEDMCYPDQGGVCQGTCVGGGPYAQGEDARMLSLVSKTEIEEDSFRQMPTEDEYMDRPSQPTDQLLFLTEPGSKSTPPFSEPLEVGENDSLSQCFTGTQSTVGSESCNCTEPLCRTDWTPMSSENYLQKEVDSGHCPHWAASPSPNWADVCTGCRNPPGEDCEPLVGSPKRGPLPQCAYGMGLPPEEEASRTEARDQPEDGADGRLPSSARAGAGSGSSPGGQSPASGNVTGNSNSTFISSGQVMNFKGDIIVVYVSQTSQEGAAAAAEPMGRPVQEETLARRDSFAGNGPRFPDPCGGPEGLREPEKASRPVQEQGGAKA

- allo-stimulatory capacity of CD1a+ DC in a mixed lymphocyte reaction (MLR): > 10 fold
Substance: RANKL (species and construct not stated at the place of use) (ligand)
